Laboratory results published in patent US20260049134A1 (UNIVERSITY OF FLORIDA RESEARCH FOUNDATION, published 2026).

T1: GARS, endogenous in H929 multiple myeloma cells (human, UniProt P41250 37-739, limits assumed)
T1 construct: Native protein pulled down from H929 lysates; also called Glycyl-tRNA synthetase; GlyRS
T1 sequence: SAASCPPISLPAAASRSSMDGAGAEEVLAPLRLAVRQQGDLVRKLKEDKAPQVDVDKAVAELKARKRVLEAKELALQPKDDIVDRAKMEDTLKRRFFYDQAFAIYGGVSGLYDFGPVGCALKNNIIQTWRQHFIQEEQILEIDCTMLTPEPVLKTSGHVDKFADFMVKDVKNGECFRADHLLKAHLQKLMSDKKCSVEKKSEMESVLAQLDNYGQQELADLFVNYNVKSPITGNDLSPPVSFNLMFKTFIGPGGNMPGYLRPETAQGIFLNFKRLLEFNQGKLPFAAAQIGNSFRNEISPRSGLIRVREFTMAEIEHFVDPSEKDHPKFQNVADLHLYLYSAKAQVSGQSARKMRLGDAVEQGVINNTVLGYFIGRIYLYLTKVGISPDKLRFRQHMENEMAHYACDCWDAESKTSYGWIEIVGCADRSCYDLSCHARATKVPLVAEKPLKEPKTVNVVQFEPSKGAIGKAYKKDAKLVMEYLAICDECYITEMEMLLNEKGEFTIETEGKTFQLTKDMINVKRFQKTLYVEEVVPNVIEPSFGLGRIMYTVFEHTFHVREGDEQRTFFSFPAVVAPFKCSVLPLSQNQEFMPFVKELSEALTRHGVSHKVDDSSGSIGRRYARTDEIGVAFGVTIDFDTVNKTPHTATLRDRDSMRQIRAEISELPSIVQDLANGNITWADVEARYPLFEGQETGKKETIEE

T2: CADM1-His (Acro Biosystems) (human, UniProt Q9BY67 45-374)
T2 construct: Bought; also called CADM1/IGSF4A; not shown: His tag of the bought protein
T2 sequence: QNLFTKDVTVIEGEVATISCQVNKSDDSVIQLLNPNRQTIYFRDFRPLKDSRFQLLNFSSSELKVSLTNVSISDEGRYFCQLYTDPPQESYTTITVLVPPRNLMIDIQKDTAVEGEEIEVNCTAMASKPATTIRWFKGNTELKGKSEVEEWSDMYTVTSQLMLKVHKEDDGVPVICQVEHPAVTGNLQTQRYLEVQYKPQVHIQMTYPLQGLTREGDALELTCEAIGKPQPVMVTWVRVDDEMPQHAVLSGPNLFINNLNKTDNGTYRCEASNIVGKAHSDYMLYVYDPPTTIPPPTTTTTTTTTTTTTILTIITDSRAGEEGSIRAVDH

T3: IL13RA1
T3 construct: coated protein in the ELISA; also called IL13RA1-Fc-His (R&D Systems)
T3 chain: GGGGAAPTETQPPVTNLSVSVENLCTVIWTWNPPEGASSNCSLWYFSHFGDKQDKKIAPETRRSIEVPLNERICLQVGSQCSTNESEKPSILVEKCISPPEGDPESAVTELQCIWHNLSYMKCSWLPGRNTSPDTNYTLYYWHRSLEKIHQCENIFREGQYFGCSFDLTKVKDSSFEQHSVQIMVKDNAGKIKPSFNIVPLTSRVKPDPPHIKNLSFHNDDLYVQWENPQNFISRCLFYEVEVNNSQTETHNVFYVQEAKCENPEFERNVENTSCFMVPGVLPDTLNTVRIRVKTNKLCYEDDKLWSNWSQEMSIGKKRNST

T4: HHLA2 (B7-H7)
T4 construct: coated protein in the ELISA; also called HHLA2-Fc (R&D Systems)
T4 chain: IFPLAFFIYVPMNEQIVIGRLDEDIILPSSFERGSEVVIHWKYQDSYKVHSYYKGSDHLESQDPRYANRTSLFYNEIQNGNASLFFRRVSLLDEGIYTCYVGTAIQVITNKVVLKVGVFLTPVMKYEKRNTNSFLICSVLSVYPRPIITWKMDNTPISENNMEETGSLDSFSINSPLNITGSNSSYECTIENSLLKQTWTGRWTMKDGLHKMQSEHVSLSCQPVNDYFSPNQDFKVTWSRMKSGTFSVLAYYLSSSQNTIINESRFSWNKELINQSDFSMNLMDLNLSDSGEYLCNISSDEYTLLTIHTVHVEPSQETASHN

T5: GARS-His (Sino Biological) (human, UniProt P41250 37-739, limits assumed)
T5 construct: Bought; also called GARS1; glycyl-tRNA synthetase; not shown: His tag of the bought protein
T5 sequence: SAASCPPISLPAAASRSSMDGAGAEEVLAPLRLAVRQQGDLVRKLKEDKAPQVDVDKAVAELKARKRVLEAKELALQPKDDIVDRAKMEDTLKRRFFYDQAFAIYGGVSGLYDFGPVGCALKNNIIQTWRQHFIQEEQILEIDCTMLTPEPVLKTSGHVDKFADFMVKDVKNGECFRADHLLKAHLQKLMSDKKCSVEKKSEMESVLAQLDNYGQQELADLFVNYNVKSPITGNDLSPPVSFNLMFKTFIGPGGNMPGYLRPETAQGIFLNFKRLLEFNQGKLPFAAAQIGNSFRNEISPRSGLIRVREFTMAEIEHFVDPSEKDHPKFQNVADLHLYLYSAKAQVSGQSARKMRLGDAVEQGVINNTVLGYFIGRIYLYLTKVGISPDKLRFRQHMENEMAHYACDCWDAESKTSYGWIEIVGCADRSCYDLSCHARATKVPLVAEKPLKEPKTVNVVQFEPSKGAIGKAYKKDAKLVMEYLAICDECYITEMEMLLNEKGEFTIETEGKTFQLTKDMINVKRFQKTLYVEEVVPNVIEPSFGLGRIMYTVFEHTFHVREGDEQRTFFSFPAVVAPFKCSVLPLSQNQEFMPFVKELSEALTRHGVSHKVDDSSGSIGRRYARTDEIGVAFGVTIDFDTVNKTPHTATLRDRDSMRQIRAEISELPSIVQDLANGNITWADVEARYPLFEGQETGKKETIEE


Experiments:
[1] = molecular target: T1, GARS, endogenous in H929 multiple …; assay: flow cytometry, H929 + PTPRG siRNA; None 2.13; surface target GARS putative
[2] = molecular target: T2, CADM1-His (Acro Biosystems); assay: ELISA on coated CADM1-His, 150 ng IgG1; None 0.059
Experimental: (§1) Recombinant purified ECDs (50-150 ng) of each putative target protein were coated, incubated with 150 ng of the indicated primary antibody, and binding was detected using a peroxidase-conjugated anti-human Fab secondary antibody. Heatmap represents averages of technical triplicates. (8B) Target validation via siRNA knockdown. H929 cells were transfected with siRNA pools targeting the putative antibody targets ICAM1, CADM1, and PTPRG. Cells were then subjected to cognate IgG binding analysis via flow cytometry. (NT, non-targeting siRNA).
(§2) ELISA ELISA was conducted as described previously. Briefly, 50-150 ng of antigen was coated overnight in half-area 96-well plates at 4° C., blocked with 3% BSA at 37° C. for 1 h, and 150 ng of chimeric rabbit/human IgG1 was added, incubating for 2 h at 37° C. […] After incubating at 37° C. for 15 min-1 h (depending on intensity of controls), data were acquired using a SpectraMax M5 plate reader (Molecular Devices).

[3] = molecular target: T6, ICAM1-Fc (R&D Systems) (human, UniProt P05362 28-480); assay: ELISA on coated ICAM1-Fc
T6 construct: Bought; also called ICAM-1/CD54; not shown: Fc of the bought fusion protein
Experimental: as §1, §2

[4] = molecular target: T3, IL13RA1; assay: ELISA on coated IL13RA1-Fc-His, 150 ng IgG1; None 0.094
Experimental: as §1, §2

[5] = molecular target: T4, HHLA2 (B7-H7); assay: ELISA on coated HHLA2-Fc, 150 ng IgG1; None 0.087
Experimental: as §1, §2

[6] = molecular target: T5, GARS-His (Sino Biological); assay: ELISA on coated GARS-His, 150 ng IgG1; None 0.099
Experimental: as §1, §2

T6 sequence (P05362 28-480): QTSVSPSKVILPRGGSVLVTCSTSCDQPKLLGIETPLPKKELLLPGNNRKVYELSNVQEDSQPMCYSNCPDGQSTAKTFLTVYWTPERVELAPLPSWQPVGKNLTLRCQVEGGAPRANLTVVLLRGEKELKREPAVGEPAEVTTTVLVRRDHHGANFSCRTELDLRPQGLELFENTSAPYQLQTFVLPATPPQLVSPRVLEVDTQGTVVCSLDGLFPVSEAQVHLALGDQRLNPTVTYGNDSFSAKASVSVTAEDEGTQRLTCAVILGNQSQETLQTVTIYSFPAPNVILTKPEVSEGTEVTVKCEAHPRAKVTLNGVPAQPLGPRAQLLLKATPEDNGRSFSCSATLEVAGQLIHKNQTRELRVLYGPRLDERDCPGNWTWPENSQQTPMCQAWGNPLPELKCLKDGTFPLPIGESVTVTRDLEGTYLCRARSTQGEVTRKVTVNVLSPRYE

Cells stained (%) [1]	ELISA Absorbance (405 nm-570 nm) [2]	ELISA Absorbance (405 nm-570 nm) [4]	ELISA Absorbance (405 nm-570 nm) [5]	ELISA Absorbance (405 nm-570 nm) [6]	Binder	binding result [3]
98.2%	0.067	0.163	0.092	0.718	HW-16 chimeric rabbit-human IgG1 LA/LA/PG (antibody, V domains shown, Fc-silenced (L234A/L235A/P329G) IgG1, kappa; Alexa Fluor 647-labeled in single-step flow cytometry; Cluster C-45) VH: QSLEESGGRLVTPGTPLTLTCTASGFSLSSYAMSWVRQAPGKGLEWIGTMPTGGGTYYASWAKGRFTISKTSTTVDLQITSPTTEDTATYFCAKHWNIWGPGTLVTISS VL: DIVLTQTPSSTSTAVGDTVTINCRASQSIGRNLAWFQQKPGQPPKLLIYRASNLASGVPSRFKGSGSRTQFTLTISGVQREDAATYYCLGSYSSSDTAFGGGTELEILR	no binding (tested: 150 ng IgG1 per well)
98.6%	–	–	0.122	0.628	HW-28 chimeric rabbit-human IgG1 LA/LA/PG (antibody, V domains shown, Fc-silenced (L234A/L235A/P329G) IgG1, lambda; Alexa Fluor 647-labeled in single-step flow cytometry; Cluster C-45) VH: QKQLVESGGRLVTPGTPLTLTCTASGFSLSSNAMSWVRQAPGEGLQWIGTISSGGSTYYASWAKGRFTISKTSTTVTLKMTSLTTEDTATYFCARGADLHRLWGPGTLVTVSS VL: SFVLTQPASVQVNLGQTVSLTCTGKPLSRSFASWYQQKPGQAPVLVIYRDTSRPSGVPDRFSGSSSGNTATLTISGAQAGDEADYYCATSDGSGSSYQYVFGGGTQLTVTG	no binding (tested: 150 ng IgG1 per well)

The remaining lines, values behind:

Binder	Cells stained (%) [1]	ELISA Absorbance (405 nm-570 nm) [2]	ELISA Absorbance (405 nm-570 nm) [4]	ELISA Absorbance (405 nm-570 nm) [5]	ELISA Absorbance (405 nm-570 nm) [6]	binding result [3]
HW-101 chimeric rabbit-human IgG1 LA/LA/PG (antibody, V domains shown, Fc-silenced (L234A/L235A/P329G) IgG1, lambda; Alexa Fluor 647-labeled in single-step flow cytometry; Cluster C-97) VH: QEQLVESGGRLVTPGTPLTLTCKASGFSLGKYDMSWVRQAPGKGLEWIGTIYAGSGSTWYASWAKGRFTISKTSTTVDLKMTSLTTEDTATYFCARDFLGVNSIWGPGTLVTISS VL: SFVLTQPASVQVNLGQTVSLTCTADTLSRSYASWYQQKPDQAPVLLIHRDTSRPSGVPDRFSGSNSGNTATLTISGAQAGDEADYYCATSDGSGSNFHFVFGGGTQLTVTG	–	0.525	0.067	0.069	0.093	–
HW-45 chimeric rabbit-human IgG1 LA/LA/PG (antibody, V domains shown, Fc-silenced (L234A/L235A/P329G) IgG1, lambda; Alexa Fluor 647-labeled in single-step flow cytometry; Prototype of cluster C-45) VH: QKQLVESGGRLVTPGTPLTLTCTVSGFSLSSYAMGWFRQAPGKGLEWIGIINSYGSTYYASWAKGRFTISKTSTTVDLKITSPTTEDTATYFCGRRIGSARFDPWGPGTLVTVSS VL: SFVLTQPASVQVNLGQTVSLTCTADTLSRSYASWYQQKPGQAPVLLIYRDTRRPSGVPDRFSGSSSGNTATLTISGAQAGDEADYYCATSDGSGSSYRLVFGGGTQLTVTG	97.3%	–	–	–	0.741	–
